Source: patent US20240352096A1 (KANGLIN BIOTECHNOLOGY HANGZHOU, published 2024)

How the values were obtained:
Test in all cases: cell-based or functional assay
[1] = target: T1, HIV-1 envelope protein of HIV-1 strain pNL4-3 (CXCR4 tropism) (HIV-1 strain pNL4-3)
[2] = target: T2, HIV-1 envelope protein of HIV-1 strain pAD-8 (CCR5 tropism) (HIV-1 strain pAD-8)
[3] = target: T1, HIV-1 envelope protein of HIV-1 strain …; remark: listed apart in the source
[4] = target: T2, HIV-1 envelope protein of HIV-1 strain …; remark: listed apart in the source
[5] = target: T1, HIV-1 envelope protein of HIV-1 strain …; remark: listed apart in the source
[6] = target: T2, HIV-1 envelope protein of HIV-1 strain …; remark: listed apart in the source

B1: Anti-HIV amphotropic neutralizing antibody-like molecule KL-BsHIV01-02 (bispecific antibody)
chain: SELTQDPAVSVALKQTVTITCRGDSLRSHYASWYQKKPGQAPVLLFYGKNNRPSGIPDRFSGSASGNRASLTITGAQAEDEADYYCSSRDKSGSRLSVFGGGTKLTVLGGGGSGGGGSGGGGSEVRLRESGGGLVKPGGSLRLSCSASGFDFDNAWMTWVRQPPGKGLEWVGRITGPGEGWSVDYAESVKGRFTISRDNTKNTLYLEMNNVRTEDTGYYFCARTGKYYDFWFGYPPGEEYFQDWGQGTLVIVSSGGGGSGGGGSGGGGSGGGGSGGGGSDIVMTQSPDSLAVSLGERVTMNCKSSQSLLYSTNQKNYLAWYQQKPGQSPKLLIYWASTRESGVPDRFSGSGSGTDFTLTISSVQAEDVAVYYCQQYYSYRTFGGGTKLEIKRTVAGGGGSGGGGSGGGGSQVQLQQSGPEVVKPGASVKMSCKASGYTFTSYVIHWVRQKPGQGLDWIGYINPYNDGTDYDEKFKGKATLTSDTSTSTAYMELSSLRSEDTAVYYCAREKDNYATGAWFAYWGQGTLVTVSS
For B1, the “Neutralization percentage; serum of mice injected with AAV vector, serum stock volume 0.005 uL; TZM-bl luciferase” value [1] was 27.7%, the “Neutralization percentage; serum of mice injected with AAV vector, serum stock volume 0.05 uL; TZM-bl luciferase” value [1] was 79% and the “Neutralization percentage; serum of mice injected with AAV vector, serum stock volume 0.5 uL; TZM-bl luciferase” value [1] was 100%. For the same binder, the “Neutralization percentage; serum of mice injected with AAV vector, serum stock volume 0.005 uL; TZM-bl luciferase” value [2] was -15.7%, the “Neutralization percentage; serum of mice injected with AAV vector, serum stock volume 0.05 uL; TZM-bl luciferase” value [2] was -4.43% and the “Neutralization percentage; serum of mice injected with AAV vector, serum stock volume 0.5 uL; TZM-bl luciferase” value [2] was 81.7%. For the same binder, the “Neutralization percentage; AAV vector-transduced C2C12 supernatant, antibody concentration 2.5 ng/ml; TZM-bl luciferase” value [3] was 100%, the “Neutralization percentage; AAV vector-transduced C2C12 supernatant, antibody concentration 5 ng/ml; TZM-bl luciferase” value [3] was 101% and the “Neutralization percentage; AAV vector-transduced C2C12 supernatant, antibody concentration 10 ng/ml; TZM-bl luciferase” value [3] was 100%. For the same binder, the “Neutralization percentage; AAV vector-transduced C2C12 supernatant, antibody concentration 2.5 ng/ml; TZM-bl luciferase” value [4] was 100%, the “Neutralization percentage; AAV vector-transduced C2C12 supernatant, antibody concentration 5 ng/ml; TZM-bl luciferase” value [4] was 100% and the “Neutralization percentage; AAV vector-transduced C2C12 supernatant, antibody concentration 10 ng/ml; TZM-bl luciferase” value [4] was 100%.

B2: Anti-HIV tritropic neutralizing antibody-like molecule KL-BsHIV01-003-02 (other)
chain: SELTQDPAVSVALKQTVTITCRGDSLRSHYASWYQKKPGQAPVLLFYGKNNRPSGIPDRFSGSASGNRASLTITGAQAEDEADYYCSSRDKSGSRLSVFGGGTKLTVLGGGGSGGGGSGGGGSEVRLRESGGGLVKPGGSLRLSCSASGFDFDNAWMTWVRQPPGKGLEWVGRITGPGEGWSVDYAESVKGRFTISRDNTKNTLYLEMNNVRTEDTGYYFCARTGKYYDFWFGYPPGEEYFQDWGQGTLVIVSSGGGGSGGGGSGGGGSGGGGSGGGGSDIVMTQSPDSLAVSLGERVTMNCKSSQSLLYSTNQKNYLAWYQQKPGQSPKLLIYWASTRESGVPDRFSGSGSGTDFTLTISSVQAEDVAVYYCQQYYSYRTFGGGTKLEIKRTVAGGGGSGGGGSGGGGSQVQLQQSGPEVVKPGASVKMSCKASGYTFTSYVIHWVRQKPGQGLDWIGYINPYNDGTDYDEKFKGKATLTSDTSTSTAYMELSSLRSEDTAVYYCAREKDNYATGAWFAYWGQGTLVTVSSGGGGSGGGGSGGGGSGGGGSGGGGSWEQKIEELLKKAEEQQKKNEEELKKLEK
With B2 the “IC50 for neutralizing HIV-1 strain pNL4-3 (CXCR4 tropism); purified antibody, TZM-bl luciferase” value [5] was 0.2 pM, the “IC50 for neutralizing HIV-1 strain pAD-8 (CCR5 tropism); purified antibody, TZM-bl luciferase” value [6] was 3.1 pM and the “Neutralization percentage; serum of mice injected with AAV vector, serum stock volume 0.005 uL; TZM-bl luciferase” value [1] was 23.4%. For the same binder, the “Neutralization percentage; serum of mice injected with AAV vector, serum stock volume 0.05 uL; TZM-bl luciferase” value [1] was 56.7%, the “Neutralization percentage; serum of mice injected with AAV vector, serum stock volume 0.5 uL; TZM-bl luciferase” value [1] was 99.4% and the “Neutralization percentage; serum of mice injected with AAV vector, serum stock volume 0.005 uL; TZM-bl luciferase” value [2] was -11.7%. For the same binder, the “Neutralization percentage; serum of mice injected with AAV vector, serum stock volume 0.05 uL; TZM-bl luciferase” value [2] was -6.85%, the “Neutralization percentage; serum of mice injected with AAV vector, serum stock volume 0.5 uL; TZM-bl luciferase” value [2] was 62.5% and the “Neutralization percentage; AAV vector-transduced C2C12 supernatant, antibody concentration 2.5 ng/ml; TZM-bl luciferase” value [3] was 101%. For the same binder, the “Neutralization percentage; AAV vector-transduced C2C12 supernatant, antibody concentration 5 ng/ml; TZM-bl luciferase” value [3] was 101%, the “Neutralization percentage; AAV vector-transduced C2C12 supernatant, antibody concentration 10 ng/ml; TZM-bl luciferase” value [3] was 100% and the “Neutralization percentage; AAV vector-transduced C2C12 supernatant, antibody concentration 2.5 ng/ml; TZM-bl luciferase” value [4] was 100%. The “Neutralization percentage; AAV vector-transduced C2C12 supernatant, antibody concentration 5 ng/ml; TZM-bl luciferase” value [4] was 100% and the “Neutralization percentage; AAV vector-transduced C2C12 supernatant, antibody concentration 10 ng/ml; TZM-bl luciferase” value [4] was 100%.
